Here are results for 13 molecules from patent publication US20230414735A1 (BIONTECH US, published 2023).

To fix the notation:
B1: SQIMSLWGL (peptide)
peptide: SQIMSLWGL
notes: NAB:STAT6 (variant 1 of Chmielecki et al.)

In general, IC50 refers to the point on the concentration scale where inhibition reaches its midpoint. Read a low IC50 as greater potency in that assay.

The first test addresses HLA-B08:01 (human). The experiment in a line: competition with 125I probe peptide for purified HLA class I. Here is the method:
(§1) Following incubation, MHC-peptide complexes are separated from free peptide by gel filtration on 7.8 mm×15 cm TSK200 columns (TosoHaas 16215, Montgomeryville, PA). Because the large size of the radiolabeled peptide used for the DRB1*1501 (DR2w2(31) assay makes separation of bound from unbound peaks more difficult under these conditions, all DRB1*1501 (DR2w2(31) assays were performed using a 7.8 mm×30 cm TSK2000 column eluted at 0.6 mLs/min. The eluate from the TSK columns is passed through a Beckman 170 radioisotope detector, and radioactivity is plotted and integrated using a Hewlett-Packard 3396A integrator, and the fraction of peptide bound is determined.
(§2) Since under these conditions [label]<[HLA] and IC₅₀≥[HLA], the measured IC₅₀ values are reasonable approximations of the true KD values. […] For database purposes, and inter-experiment comparisons, relative binding values are compiled. These values can subsequently be converted back into IC₅₀ nM values by dividing the IC₅₀ nM of the positive controls for inhibition by the relative binding of the peptide of interest.
In the case of LKKLRSPL (also called SMAP1(-1)), the IC50 came out at 0.6 nM.

Another test addresses HLA-B08:01 (human). The experiment in a line: pMHC-I dissociation half-life, 125I-b2m. Here is the method: Briefly, synthetic genes encoding biotinylated MHC-I heavy and light chains are expressed in E. coli and purified from inclusion bodies using standard methods. The light chain (β2m) is radio-labeled with iodine (¹²⁵I), and combined with the purified MHC-I heavy chain and peptide of interest at 18° C. to initiate pMHC-I complex formation. These reactions are carried out in streptavidin coated microplates to bind th biotinylated MHC-I heavy chains to the surface and allow measurement of radiolabeled light chain to monitor complex formation. Dissociation is initiated by addition of higher concentations of unlabled light-chain and incubation at 37° C. Stability is defined as the length of time in hours it takes for half of the complexes to dissociate, as measured by scintillation counts
For the molecule SLGNHLCPL (MLL2, CRLS), the “Stability (T1/2 (h))” value was found to be 0.5 h. On to LSLMPAHWSI (JAK1(-1)), for which the “Stability (T1/2 (h))” value amounted to 0 h. On the same count and under the same terms, with SLMPAHWSI (JAK1(-1)) the figure was 0 h; with FQNGKMALSA (FRG1B, L52S), 0 h. The same measure, in the same setting: with FELLSTPPL (MYC, P57S) the figure was 0 h; with FLQEQYHEA (GATA3 YHEA), 0 h; with YVMAYVMAG (HER2, G776insYVMA), 1.2 h. The same measure, in the same setting: to YLGNHMNIA (KIT, V654A) belongs 0 h. Regarding YMFLKAESKI (GATA3 CSNH), the “Stability (T1/2 (h))” value worked out at 0.4 h. On the same count and under the same terms, with FLLALWECSL (MSH3(-1)) the figure was 0 h; with B1, 0 h; with YVMAYVMAGV (HER2, G776insYVMA), 0 h.

The next test addresses HLA-B08:01 (human). Nature of the test: competition with 125I probe peptide on purified HLA. Here is the method:
Immunol. 31:813, 1994; Sidney et al., in Current Protocols in Immunology, Margulies, Ed., John Wiley & Sons, New York, Section 18.3, 1998).
as §1, §2
In the case of FELLSTPPL (MYC, P57S), the IC50 was determined as 3180 nM. Same read-out and setting: to YLGNHMNIA (KIT, V654A) belongs 872 nM.
